Where two headings read alike, the source gives them in different places.
T1: recombinant human OX40L (extracellular domain, R&D Systems) (human, UniProt P23510 51-183)
T1 sequence: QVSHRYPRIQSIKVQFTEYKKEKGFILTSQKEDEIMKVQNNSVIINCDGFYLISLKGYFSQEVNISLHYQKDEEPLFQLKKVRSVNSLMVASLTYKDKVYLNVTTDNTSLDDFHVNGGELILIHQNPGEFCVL

T2: biotinylated hOX40L (R&D Systems, biotinylated in house) (human, UniProt P23510 51-183, biotinylated with Sulfo-NHS-LC-Biotin, sites not stated)
T2 construct: same bought protein as m10, biotinylated; also called biotinylated OX40L
T2 sequence: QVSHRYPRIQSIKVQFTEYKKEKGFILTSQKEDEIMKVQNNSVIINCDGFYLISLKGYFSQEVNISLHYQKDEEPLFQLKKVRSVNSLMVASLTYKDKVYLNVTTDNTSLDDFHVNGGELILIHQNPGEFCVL

T3: hCD40L (human, UniProt P29965 113-261)
T3 sequence (looked up): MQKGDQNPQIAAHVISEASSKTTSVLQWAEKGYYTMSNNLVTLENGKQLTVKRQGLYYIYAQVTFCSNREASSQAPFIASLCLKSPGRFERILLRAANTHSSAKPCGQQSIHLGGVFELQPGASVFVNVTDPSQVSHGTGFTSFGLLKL

T4: human Receptor Activator for Nuclear Factor kappa B Ligand (human, UniProt O14788 143-317, limits assumed)
T4 construct: also called hRANKL; RANKL
T4 sequence (looked up): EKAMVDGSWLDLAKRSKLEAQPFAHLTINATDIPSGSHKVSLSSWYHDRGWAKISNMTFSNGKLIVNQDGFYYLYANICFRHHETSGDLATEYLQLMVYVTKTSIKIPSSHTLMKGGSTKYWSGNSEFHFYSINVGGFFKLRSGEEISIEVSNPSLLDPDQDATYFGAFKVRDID

T5: hCD30L (human, UniProt P32971 63-234)
T5 sequence (looked up): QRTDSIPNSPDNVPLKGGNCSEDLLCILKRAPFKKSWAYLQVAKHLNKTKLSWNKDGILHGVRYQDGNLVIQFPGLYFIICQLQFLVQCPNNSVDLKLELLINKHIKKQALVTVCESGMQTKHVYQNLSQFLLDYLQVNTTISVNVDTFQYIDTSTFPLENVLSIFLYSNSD


Experiments:
[1] = target: T1, recombinant human OX40L (extracellular …); assay: cell-based or functional assay
[2] = target: T2, biotinylated hOX40L (R&D Systems, …); assay: hOX40L/hOX40 AlphaScreen, native sample
Experimental: (§1) Next, streptavidin donor beads were added and incubated for an additional 1 hour. Fluorescence was measured by reading plates on the EnVision Multilabel Plate Reader using an excitation wavelength of 680 nm and an emission wavelength of 520 nm.
(§2) In the TSA assay, Nanobodies were diluted to a concentration of 0.2 mg/ml and melting temperature (Tm) was determined at different pH by stepwise increase in temperature in presence of Sypro Orange, a dye that binds to […] residues that become exposed upon unfolding of the protein, using the Lightcycler (Roche) for detection. […] In SEC analysis, the Nanobodies were analyzed on a Phenomenex matrix to allow detection of multimers, aggregates or ‘stickyness’.

hTNF-alpha [3] = target: T6, hTNF-alpha (human, UniProt P01375 77-233); assay: competition ELISA: fixed concentration of OX40L01E07 pre-incubated with a concentration series of the competitor, then added to biotinylated hOX40L captured on neutravidin; OD450nm
Experimental: (§3) The binding of OX40L blocking Nanobodies to other TNF family members was tested in a competition ELISA.
(§4) Detection was done using sTMB (SDT Reagents, Baesweiler, Germany), the reaction was stopped with 1M HCl and absorbance was determined at 450 nm.

hCD40L [4] = target: T3, hCD40L; assay: as above
Experimental: as §3, §4

[5] = target: T4, human Receptor Activator for Nuclear …; assay: as above
Experimental: as §3, §4

[6] = target: T7, human tumor necrosis factor-related apoptosis inducing ligand (human, UniProt P50591 114-281); assay: as above
T7 construct: also called hTRAIL; TRAIL
Experimental: as §3, §4

hTNF-alpha [7] = target: T6, hTNF-alpha; assay: competition ELISA on neutravidin captured biotinylated hOX40L
Experimental: as §3, §4

hCD40L [8] = target: T3, hCD40L; assay: as above
Experimental: as §3, §4

hCD30L = target: T5, hCD30L; assay: as above
Experimental: as §3, §4

[9] = target: T4, human Receptor Activator for Nuclear …; assay: as above
Experimental: as §3, §4

[10] = target: T7, human tumor necrosis factor-related …; assay: as above
Experimental: as §3, §4

[11] = target: T1, recombinant human OX40L (extracellular …); assay: cell-based or functional assay; remark: listed apart in the source
[12] = target: T2, biotinylated hOX40L (R&D Systems, …); assay: hOX40L/hOX40 AlphaScreen, assay 1, native
Experimental: Next, streptavidin donor beads were added and incubated for an additional 1 hour. Fluorescence was measured by reading plates on the EnVision Multilabel Plate Reader using an excitation wavelength of 680 nm and an emission wavelength of 520 nm. […]

[13] = target: T2, biotinylated hOX40L (R&D Systems, …); assay: hOX40L/hOX40 AlphaScreen, assay 2, native
Experimental: as §1, §2

[14] = target: T2, biotinylated hOX40L (R&D Systems, …); assay: hOX40L/hOX40 AlphaScreen, assay 3, native
[15] = target: T2, biotinylated hOX40L (R&D Systems, …); assay: hOX40L/hOX40 AlphaScreen, assay 2, heated at Tm+10 C

T6 sequence (P01375 77-233 limits assumed): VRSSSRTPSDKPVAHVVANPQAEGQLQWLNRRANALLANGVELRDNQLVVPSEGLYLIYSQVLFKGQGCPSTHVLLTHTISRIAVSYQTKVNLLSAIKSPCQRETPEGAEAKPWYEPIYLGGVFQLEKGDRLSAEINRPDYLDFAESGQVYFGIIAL
T7 sequence (P50591 114-281 limits assumed): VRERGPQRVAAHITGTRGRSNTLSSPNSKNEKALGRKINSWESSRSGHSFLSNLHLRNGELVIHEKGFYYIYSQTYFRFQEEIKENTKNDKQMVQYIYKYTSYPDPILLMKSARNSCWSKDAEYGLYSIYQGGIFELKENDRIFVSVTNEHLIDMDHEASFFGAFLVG

Binder | IC50, T cell assay with rec. hOX40L [1] | IC50 [2] | binding result (hTNF-alpha [3]) | binding result (hCD40L [4]) | binding result [5] | binding result [6] | binding result (hTNF-alpha [7]) | binding result (hCD40L [8]) | binding result (hCD30L) | binding result [9] | binding result [10] | IC50, T cell assay with rec. hOX40L [11] | IC50 [12] | IC50 [13] | IC50 [14] | IC50 [15]
OX40L01E07 (VHH, monovalent Nanobody from E. coli; not shown: C-terminal c-myc and His6 tag) VHH: EVQLVESGGGLVQAGGSLRLSCAASGRTFSSIYAKGWFRQAPGKEREFVAAISRSGRSTSYADSVKGRFTISRDNAKNTVYLQMNSLKPEDTAVYYCAAVGGATTVTASEWDYWGLGTQVTVSS | 1.48 nM | 0.1 nM | no binding | no binding | no binding | no binding |  |  |  |  |  |  |  |  |  | 
OX40L01B11 (VHH, monovalent Nanobody from E. coli; not shown: C-terminal c-myc and His6 tag) VHH: EVQLVESGGGLVQAGGSLRLSCVASGRSFSTYIMGWFRQAPGKEREFVATISRSGITTRSADSVKGRFTISRDNAKNTVYLQMNSLKPEDTAVYYCAAGPYVEQTLGLYQTLGPWDYWGQGTQVTVSS |  | 0.54 nM |  |  |  |  | no binding (tested: starting from 100 fold molar excess) | no binding (tested: starting from 100 fold molar excess) | no binding (tested: starting from 100 fold molar excess) | no binding (tested: starting from 100 fold molar excess) | no binding (tested: starting from 100 fold molar excess) |  |  |  |  | 
OX40L15B07 (VHH, monovalent Nanobody from E. coli; not shown: C-terminal c-myc and His6 tag) VHH: EVQLVESGGGLVQAGGSLRLSCAASRSIGRLDRMGWYRHRTGEPRELVATITGGSSINYGDFVKGRFTISIDNAKNTVYLQMNNLKPEDTAVYYCNFNKYVTSRDTWGQGTQVTVSS |  |  |  |  |  |  | no binding (tested: starting from 100 fold molar excess) | no binding (tested: starting from 100 fold molar excess) | no binding (tested: starting from 100 fold molar excess) | no binding (tested: starting from 100 fold molar excess) | no binding (tested: starting from 100 fold molar excess) | 10 nM | 0.102 nM | 0.066 nM | 0.077 nM | 0.103 nM

Source: patent US20150218281A1 (Ablynx, published 2015)
